Reference: patent US20160039904A1, “STABILIZED SINGLE HUMAN CD4 DOMAINS AND FUSION PROTEINS” (priority 2013, published 2016)

Experiments:
Experiment in all cases: cell-based or functional assay
[1] = target: HIV-1 Env of isolate CNE23 (HIV-1)
[2] = target: HIV-1 Env of isolate CNE1 (HIV-1)
[3] = target: HIV-1 Env of isolate CNE107 (HIV-1)
[4] = target: HIV-1 Env of isolate AE20 (HIV-1)
[5] = target: HIV-1 Env of isolate CNE20 (HIV-1)
[6] = target: HIV-1 Env of isolate CNE5 (HIV-1)
[7] = target: HIV-1 Env of isolate CH120 (HIV-1)
[8] = target: HIV-1 Env of isolate CNE59 (HIV-1)
[9] = target: HIV-1 Env of isolate CNE46 (HIV-1)
[10] = target: HIV-1 Env of isolate CNE30 (HIV-1)
[11] = target: HIV-1 Env of isolate CNE58 (HIV-1)
[12] = target: HIV-1 Env of isolate CNE40 (HIV-1)
[13] = target: HIV-1 Env of isolate CNE65 (HIV-1)
[14] = target: HIV-1 Env of isolate CNE14 (HIV-1)
[15] = target: HIV-1 Env of isolate CNE53 (HIV-1)
[16] = target: HIV-1 Env of isolate CNE64 (HIV-1)
[17] = target: HIV-1 Env of isolate YN192.31 (HIV-1)
[18] = target: HIV-1 Env of isolate CNE16 (HIV-1)
[19] = target: HIV-1 Env of isolate CH110 (HIV-1)
[20] = target: HIV-1 Env of isolate CH91 (HIV-1)
[21] = target: HIV-1 Env of isolate GX2010.36 (HIV-1)
[22] = target: HIV-1 Env of isolate CNE4 (HIV-1)
[23] = target: HIV-1 Env of isolate CH119 (HIV-1)
[24] = target: HIV-1 Env of isolate CNE49 (HIV-1)
[25] = target: HIV-1 Env of isolate CNE11 (HIV-1)
[26] = target: HIV-1 Env of isolate CNE9 (HIV-1)
[27] = target: HIV-1 Env of isolate CNE7 (HIV-1)
[28] = target: HIV-1 Env of isolate CH70 (HIV-1)
[29] = target: HIV-1 Env of isolate CNE68 (HIV-1)
[30] = target: HIV-1 Env of isolate CNE6 (HIV-1)
[31] = target: HIV-1 Env of isolate CH117 (HIV-1)
[32] = target: HIV-1 Env of isolate CNE55 (HIV-1)
[33] = target: HIV-1 Env of isolate CNE57 (HIV-1)
[34] = target: HIV-1 Env of isolate CH64 (HIV-1)
[35] = target: HIV-1 Env of isolate CH114 (HIV-1)
[36] = target: HIV-1 Env of isolate CNE47 (HIV-1)
[37] = target: HIV-1 Env of isolate CNE15 (HIV-1)
[38] = target: HIV-1 Env of isolate CNE66 (HIV-1)
[39] = target: HIV-1 Env of isolate CNE3 (HIV-1)
[40] = target: HIV-1 Env of isolate CNE17 (HIV-1)
[41] = target: HIV-1 Env of isolate AE03 (HIV-1)

With C34 (peptide) the neutralization IC50 [1] was 2.1 nM, the neutralization IC90 [1] was 18 nM and the neutralization IC50 [2] was 0.73 nM. It also gave a neutralization IC90 [2] of 6.8 nM, a neutralization IC50 [3] of 2.8 nM and a neutralization IC90 [3] of 32 nM. It also gave a neutralization IC50 [4] of 7.4 nM, a neutralization IC90 [4] of 69 nM and a neutralization IC50 [5] of 3.3 nM. For the same substance, the neutralization IC90 [5] was 14 nM, the neutralization IC50 [6] was 5.9 nM and the neutralization IC90 [6] was 63 nM. For the same substance, the neutralization IC50 [7] was 4.6 nM, the neutralization IC90 [7] was 39 nM and the neutralization IC50 [8] was 3.4 nM. The neutralization IC90 [8] was 28 nM, the neutralization IC50 [9] was 6.4 nM and the neutralization IC90 [9] was 115 nM. The neutralization IC50 [10] was 14 nM, the neutralization IC90 [10] was 110 nM and the neutralization IC50 [11] was 2 nM. The neutralization IC90 [11] was 13 nM, the neutralization IC50 [12] was 0.77 nM and the neutralization IC90 [12] was 7.8 nM. It also gave a neutralization IC50 [13] of 3.1 nM, a neutralization IC90 [13] of 16 nM and a neutralization IC50 [14] of 3.9 nM. For the same substance, the neutralization IC90 [14] was 17 nM, the neutralization IC50 [15] was 2 nM and the neutralization IC90 [15] was 23 nM. For the same substance, the neutralization IC50 [16] was 5.1 nM, the neutralization IC90 [16] was 21 nM and the neutralization IC50 [17] was 27 nM. It also gave a neutralization IC90 [17] of 225 nM, a neutralization IC50 [18] of 11 nM and a neutralization IC90 [18] of 51 nM. The neutralization IC50 [19] was 0.78 nM, the neutralization IC90 [19] was 6.3 nM and the neutralization IC50 [20] was 2.3 nM. The neutralization IC90 [20] was 12 nM, the neutralization IC50 [21] was 15 nM and the neutralization IC90 [21] was 165 nM. It also gave a neutralization IC50 [22] of 6.3 nM, a neutralization IC90 [22] of 23 nM and a neutralization IC50 [23] of 3.3 nM. The neutralization IC90 [23] was 20 nM, the neutralization IC50 [24] was 2.3 nM and the neutralization IC90 [24] was 12 nM. It also gave a neutralization IC50 [25] of 4.6 nM, a neutralization IC90 [25] of 42 nM and a neutralization IC50 [26] of 0.87 nM. It also gave a neutralization IC90 [26] of 5.8 nM, a neutralization IC50 [27] of 6.4 nM and a neutralization IC90 [27] of 22 nM. The neutralization IC50 [28] was 7.6 nM, the neutralization IC90 [28] was 84 nM and the neutralization IC50 [29] was 2.2 nM. It also gave a neutralization IC90 [29] of 12 nM, a neutralization IC50 [30] of 1.6 nM and a neutralization IC90 [30] of 15 nM. It also gave a neutralization IC50 [31] of 0.6 nM, a neutralization IC90 [31] of 3.2 nM and a neutralization IC50 [32] of 7.9 nM. It also gave a neutralization IC90 [32] of 103 nM, a neutralization IC50 [33] of 2 nM and a neutralization IC90 [33] of 14 nM. It also gave a neutralization IC50 [34] of 1.2 nM, a neutralization IC90 [34] of 6.7 nM and a neutralization IC50 [35] of 5.4 nM. It also gave a neutralization IC90 [35] of 25 nM, a neutralization IC50 [36] of 1.9 nM and a neutralization IC90 [36] of 14 nM. For the same substance, the neutralization IC50 [37] was 3.8 nM, the neutralization IC90 [37] was 22 nM and the neutralization IC50 [38] was 2.1 nM. The neutralization IC90 [38] was 11 nM, the neutralization IC50 [39] was 7.1 nM and the neutralization IC90 [39] was 71 nM. It also gave a neutralization IC50 [40] of 3.2 nM, a neutralization IC90 [40] of 82 nM and a neutralization IC50 [41] of 24 nM. For the same substance, the neutralization IC90 [41] was 85 nM.
Work on T20 (enfuvirtide) (peptide) yielded a neutralization IC50 [1] of 15 nM, a neutralization IC90 [1] of 228 nM and a neutralization IC50 [2] of 1.6 nM. It also gave a neutralization IC90 [2] of 17 nM, a neutralization IC50 [3] of 3.8 nM and a neutralization IC90 [3] of 45 nM. It also gave a neutralization IC50 [4] of 212 nM, a neutralization IC90 [4] of 572 nM and a neutralization IC50 [5] of 5.5 nM. The neutralization IC90 [5] was 41 nM, the neutralization IC50 [6] was 2.1 nM and the neutralization IC90 [6] was 19 nM. For the same substance, the neutralization IC50 [7] was 11 nM, the neutralization IC90 [7] was 443 nM and the neutralization IC50 [8] was 1.4 nM. The neutralization IC90 [8] was 17 nM, the neutralization IC50 [9] was 26 nM and the neutralization IC90 [9] was 743 nM. It also gave a neutralization IC50 [10] of 26 nM, a neutralization IC90 [10] of 285 nM and a neutralization IC50 [11] of 54 nM. It also gave a neutralization IC90 [11] of 745 nM, a neutralization IC50 [12] of 4.9 nM and a neutralization IC90 [12] of 108 nM. The neutralization IC50 [13] was 5.9 nM, the neutralization IC90 [13] was 78 nM and the neutralization IC50 [14] was 9.7 nM. For the same substance, the neutralization IC90 [14] was 305 nM, the neutralization IC50 [15] was 51 nM and the neutralization IC90 [15] was 721 nM. The neutralization IC50 [16] was 1.9 nM, the neutralization IC90 [16] was 16 nM and the neutralization IC50 [17] was 42 nM. It also gave a neutralization IC90 [17] of 336 nM, a neutralization IC50 [18] of 14 nM and a neutralization IC90 [18] of 169 nM. It also gave a neutralization IC50 [19] of 4.3 nM, a neutralization IC90 [19] of 262 nM and a neutralization IC50 [20] of 8.6 nM. The neutralization IC90 [20] was 310 nM, the neutralization IC50 [21] was 255 nM and the neutralization IC90 [21] was > 750 nM. The neutralization IC50 [22] was 1.7 nM, the neutralization IC90 [22] was 14 nM and the neutralization IC50 [23] was 2 nM. The neutralization IC90 [23] was 25 nM, the neutralization IC50 [24] was 9.1 nM and the neutralization IC90 [24] was 236 nM. For the same substance, the neutralization IC50 [25] was 3.5 nM, the neutralization IC90 [25] was 36 nM and the neutralization IC50 [26] was 1.7 nM. The neutralization IC90 [26] was 14 nM, the neutralization IC50 [27] was 4.3 nM and the neutralization IC90 [27] was 58 nM. The neutralization IC50 [28] was 65 nM, the neutralization IC90 [28] was > 750 nM and the neutralization IC50 [29] was 32 nM. For the same substance, the neutralization IC90 [29] was 321 nM, the neutralization IC50 [30] was 1.4 nM and the neutralization IC90 [30] was 15 nM. For the same substance, the neutralization IC50 [31] was 2.3 nM, the neutralization IC90 [31] was 34 nM and the neutralization IC50 [32] was 26 nM. For the same substance, the neutralization IC90 [32] was 549 nM, the neutralization IC50 [33] was 2.5 nM and the neutralization IC90 [33] was 24 nM. It also gave a neutralization IC50 [34] of 3.1 nM, a neutralization IC90 [34] of 25 nM and a neutralization IC50 [35] of 102 nM. The neutralization IC90 [35] was > 750 nM, the neutralization IC50 [36] was 4.9 nM and the neutralization IC90 [36] was 42 nM. The neutralization IC50 [37] was 14 nM, the neutralization IC90 [37] was 157 nM and the neutralization IC50 [38] was 129 nM. For the same substance, the neutralization IC90 [38] was 729 nM, the neutralization IC50 [39] was 5.6 nM and the neutralization IC90 [39] was 38 nM. For the same substance, the neutralization IC50 [40] was 42 nM, the neutralization IC90 [40] was 676 nM and the neutralization IC50 [41] was 304 nM. The neutralization IC90 [41] was 510 nM.
